Data as given in PMC2660430.

B1: PfTrx1 (wild type thioredoxin) [P. falciparum] / PfSAHH (recombinant S-adenosyl-L-homocysteine hydrolase) [P. falciparum strain 3D7] (parent)
chain 1: MVKIVTSQAEFDSIISQNELVIVDFFAEWCGPCKRIAPFYEECSKTYTKMVFIKVDVDEVSEVTEKENITSMPTFKVYKNGSSVDTLLGANDSALKQLIEKYAA
chain 2: MVENKSKVKDISLAPFGKMQMEISENEMPGLMRIREEYGKDQPLKNAKITGCLHMTVECALLIETLQKLGAQIRWCSCNIYSTADYAAAAVSTLENVTVFAWKNETLEEYWWCVESALTWGDGDDNGPDMIVDDGGDATLLVHKGVEYEKLYEEKNILPDPEKAKNEEERCFLTLLKNSILKNPKKWTNIAKKIIGVSEETTTGVLRLKKMDKQNELLFTAINVNDAVTKQKYDNVYGCRHSLPDGLMRATDFLISGKIVVICGYGDVGKGCASSMKGLGARVYITEIDPICAIQAVMEGFNVVTLDEIVDKGDFFITCTGNVDVIKLEHLLKMKNNAVVGNIGHFDDEIQVNELFNYKGIHIENVKPQVDRITLPNGNKIIVLARGRLLNLGCATGHPAFVMSFSFCNQTFAQLDLWQNKDTNKYENKVYLLPKHLDEKVALYHLKKLNASLTELDDNQCQFLGVNKSGPFKSNEYRY
B2: Plrx (wild type plasmoredoxin, recombinant) [P. falciparum] / PfSAHH (recombinant S-adenosyl-L-homocysteine hydrolase) [P. falciparum strain 3D7] (parent)
chain 1: MACQVDNPPKTYPNDKTAEYEKYANYMNYLYYYQNNELKKIDSSYFKDKYLGLFFGASWCKYCVTFIDSLNIFKKNFPNVEIIYIPFDRTYQEYQSFLKNTNFYALPFDNYLYICKKYQIKNLPSFMLITPNNNILVKDAAQLIKTDEYINNLKSLIKNYIIHPKTFQFNNRFFDLFRN
chain 2: B1 chain 2

Variants of: B1
Assay: SPR
Details: with PfSAHH (recombinant S-adenosyl-L-homocysteine hydrolase) [P. falciparum strain 3D7]; Maximum response at end of analyte injection; SAHH on the sensor surface oxidized with 0.5 mM DTNB; 30 µl of analyte, 10 µM in HBS buffer; pre-injection …; parent: 28; read off a plot

Variant | response (RD (normalized))
chain 1 C30S C33S | 21
chain 1 C33S | 97

Variants of: B2
Assay: SPR
Details: with PfSAHH (recombinant S-adenosyl-L-homocysteine hydrolase) [P. falciparum strain 3D7]; Maximum response at end of analyte injection; SAHH on the sensor surface oxidized with 0.5 mM DTNB; 30 µl of analyte, 10 µM in HBS buffer; pre-injection …; parent: 99; read off a plot

Variant | response (RD (normalized))
chain 1 C63S | 28
